Experiment [1] addresses T1, rHuman P-Cadherin/Fc Chimera, CF (R&D Systems Cat#861-PC) (human, UniProt P22223 108-654).
T1 construct: Bought reagent
Put plainly: ECL multispot (MSD), antigen spotted, Fab in solution; blank spot 352.

Experiment [2] deals with T2, rHuman CD44/Fc Chimera, CF (R&D Systems Cat#3660-CD) (human, UniProt P16070 21-220).
T2 construct: Bought reagent
Described as above.

In experiment [3] the target is T3, rHuman IGF-1 sR (insulin-like growth factor-1 soluble receptor), CF (R&D Systems Cat#391-GR) (human, UniProt P08069 31-932).
T3 construct: Bought soluble receptor
Described as above.

For experiment [4], the target named is T4, rHuman Erythropoietin R/Fc Chimera, CF (R&D Systems Cat#963-ER) (human, UniProt P19235 25-250).
T4 construct: Bought reagent; also called EPO R; Epo R/Fc
T4 sequence (looked up): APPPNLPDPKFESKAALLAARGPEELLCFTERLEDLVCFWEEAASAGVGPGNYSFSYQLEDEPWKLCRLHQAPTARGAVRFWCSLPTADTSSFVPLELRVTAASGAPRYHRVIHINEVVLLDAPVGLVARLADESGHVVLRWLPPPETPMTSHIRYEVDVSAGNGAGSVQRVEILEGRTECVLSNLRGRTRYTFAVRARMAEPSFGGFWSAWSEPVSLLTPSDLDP
The experiment is described as above.

Experiment [5] addresses T5, rHuman ErbB2/Fc Chimera, CF (R&D Systems Cat#1129-ER) (human, UniProt P04626 23-652).
T5 construct: Bought reagent
Described as above.

In experiment [6] the target is T6, rHuman EGF R/Fc Chimera, CF (R&D Systems Cat#344-ER) (human, UniProt P00533 25-645).
T6 construct: Bought reagent
The description is as above.

Experiment [7] concerns the target T7, rHuman Notch-1/Fc Chimera, CF (R&D Systems Cat#3647-TK) (human, UniProt P46531 19-526).
T7 construct: Bought reagent
Described as above.

Experiment [8] deals with T8, Recombinant Human DLL4 (R&D Systems Cat#1506-D4/CF) (human, UniProt Q9NR61 27-524).
T8 construct: Bought recombinant protein; also called delta-like protein 4; rHuman DLL4
Described as above.

Experiment [9] concerns the target T9, rHuman HGF R/c-MET/Fc Chimera, CF (R&D Systems Cat#358-MT/CF) (human, UniProt P08581 25-932).
T9 construct: Bought reagent; also called HGF R/Fc
The experiment is described as above.

Experiment [10] has as its target T10, rHuman Erythropoietin R/Fc Chimera, CF (R&D Systems Cat#963-ER) (human, UniProt P19235 25-250).
T10 construct: Bought recombinant protein; also called EPO R; EPO R/Fc; Fc part of the bought chimera not given
T10 sequence (looked up): T4 sequence (looked up)
Put plainly: ECL multispot (MSD) assay, antigen spotted on plate; blank spot of this row 302.

Experiment [11] addresses T11, rHuman CD44/Fc Chimera, CF (R&D Systems Cat#3660-CD) (human, UniProt P16070 21-220).
T11 construct: Bought recombinant protein; Fc part of the bought chimera not given
The description is as above.

Experiment [12] deals with T12, rHuman EGF R/Fc Chimera, CF (R&D Systems Cat#344-ER) (human, UniProt P00533 25-645).
T12 construct: Bought recombinant protein; also called epidermal growth factor receptor; Fc part of the bought chimera not given
Described as above.

In experiment [13] the target is T13, rHuman HGF R/c-MET/Fc Chimera, CF (R&D Systems Cat#358-MT/CF) (human, UniProt P08581 25-932).
T13 construct: Bought recombinant protein; also called HGF R/Fc; hepatocyte growth factor receptor; Fc part of the bought chimera not given
Described as above.

The target of experiment [14] is T14, rHuman IGF-1 sR, (IGF-1 sR), CF (R&D Systems Cat#391-GR) (human, UniProt P08069 31-932).
T14 construct: Bought recombinant soluble receptor; also called insulin-like growth factor-1 soluble receptor
The experiment is described as above.

In experiment [15] the target is T15, rHuman Notch-1/Fc Chimera, CF (R&D Systems Cat#3647-TK) (human, UniProt P46531 19-526).
T15 construct: Bought recombinant protein; Fc part of the bought chimera not given
Described as above.

Experiment [16] concerns the target T16, rHuman P-Cadherin/Fc Chimera, CF (R&D Systems Cat#861-PC) (human, UniProt P22223 108-654).
T16 construct: Bought recombinant protein; Fc part of the bought chimera not given
The experiment is described as above.

Experiment [17] addresses T17, rHuman ErbB2/Fc Chimera, CF (R&D Systems Cat#1129-ER) (human, UniProt P04626 23-652).
T17 construct: Bought recombinant protein; also called human epidermal growth factor 2 receptor; Fc part of the bought chimera not given
Described as above.

Experiment [18] concerns the target T18, Recombinant Human DLL4 (R&D Systems Cat#1506-D4/CF) (human, UniProt Q9NR61 27-524).
T18 construct: Bought recombinant protein; also called delta-like protein 4; rHuman DLL4
Described as above.

The target of experiment [19] is T10, rHuman Erythropoietin R/Fc Chimera, CF …. Put plainly: ECL multispot (MSD) assay, antigen spotted on plate; blank spot of this row 184.
In experiment [20] the target is T11, rHuman CD44/Fc Chimera, CF (R&D Systems …). The experiment is described as above.
Experiment [21] addresses T12, rHuman EGF R/Fc Chimera, CF (R&D …). Described as above.
Experiment [22] addresses T13, rHuman HGF R/c-MET/Fc Chimera, CF (R&D …). Described as above.
For experiment [23], the target named is T14, rHuman IGF-1 sR, (IGF-1 sR), CF (R&D …). The experiment is described as above.
Experiment [24] concerns the target T15, rHuman Notch-1/Fc Chimera, CF (R&D …). Described as above.
Experiment [25] concerns the target T16, rHuman P-Cadherin/Fc Chimera, CF (R&D …). The description is as above.
Experiment [26] has as its target T17, rHuman ErbB2/Fc Chimera, CF (R&D …). The experiment is described as above.
The target of experiment [27] is T18, Recombinant Human DLL4 (R&D Systems …). Described as above.
For experiment [28], the target named is T10, rHuman Erythropoietin R/Fc Chimera, CF …. Nature of the experiment: ECL multispot (MSD) assay, antigen spotted on plate; blank spot of this row 351.
The target in experiment [29] is T11, rHuman CD44/Fc Chimera, CF (R&D Systems …). The experiment is described as above.
Experiment [30] addresses T12, rHuman EGF R/Fc Chimera, CF (R&D …). The description is as above.
For experiment [31], the target named is T13, rHuman HGF R/c-MET/Fc Chimera, CF (R&D …). The description is as above.
Experiment [32] addresses T14, rHuman IGF-1 sR, (IGF-1 sR), CF (R&D …). The description is as above.
The target of experiment [33] is T15, rHuman Notch-1/Fc Chimera, CF (R&D …). The experiment is described as above.
The target of experiment [34] is T16, rHuman P-Cadherin/Fc Chimera, CF (R&D …). Described as above.
Experiment [35] deals with T17, rHuman ErbB2/Fc Chimera, CF (R&D …). The description is as above.
The target in experiment [36] is T18, Recombinant Human DLL4 (R&D Systems …). Described as above.

Positions count from the first letter of the chain named. Numbers in names are those of the source.

B1: Fab VH1-46_IGHD6-6*01_IGHJ1*01 S102A/S103P/S104F/H111F (APFF) & L6_IGKJ1*01 S30N (Fab, V domains shown)
VH: QVQLVQSGAEVKKPGASVKVSCKASGYTFTSYYMHWVRQAPGQGLEWMGIINPSGGSTSYAQKFQGRVTMTRDTSTSTVYMELSSLRSEDTAVYYCAREEYAPFSAEYFQFWGQGTLVTVSS
VL: EIVLTQSPATLSLSPGERATLSCRASQSVNSYLAWYQQKPGQAPRLLIYDASNRATGIPARFSGSGSGTDFTLTISSLEPEDFAVYYCQQRSNWPPWTFGQGTKVEIKR
notes: Tested as Fab made in E. coli: VH joined to CH1 from Plasmid A (His6 and Flag tags), VL joined to kappa CL from Plasmid C; also called APFF / S30N
For B1, the ECL signal in experiment [1] came out at 396; in experiment [2], 437; in [3], 362; in [4], 525; in [5], 241; in [6] it was 400. Besides, the figures for the ECL signal in experiment [7], in experiment [8] and in [9] were 296, 175000 and 297, respectively.

B2: Fab VH1-46_IGHD6-6*01_IGHJ1*01 S102A/S103P/S104F/H111F (APFF) & L6_IGKJ1*01 S30P (Fab, V domains shown)
VH: B1 VH
VL: B1 VL with N30P
notes: Fab made in E. coli: VH cloned into Plasmid A (CH1, His6 and Flag tags), kappa VL into Plasmid C (kappa CL); also called APFF / S30P
For the molecule B2, the ECL signal in [10] worked out at 418; in experiment [11], 411; in experiment [12], 385; in experiment [13], 383; in experiment [14], 312; in [15], 346. Further, the ECL signal was found to be 413 in experiment [16], 358 in experiment [17] and 1260 in experiment [18].

B3: Fab VH1-46_IGHD6-6*01_IGHJ1*01 S102A/S103P/S104F/H111F (APFF) & L6_IGKJ1*01 S30A (Fab, V domains shown)
VH: B1 VH
VL: B1 VL with N30A
notes: Fab made in E. coli: VH cloned into Plasmid A (CH1, His6 and Flag tags), kappa VL into Plasmid C (kappa CL); also called APFF / S30A
In the case of B3, the ECL signal in [19] was 475; in experiment [20], 451; in [21] it was 337; in experiment [22], 311; in experiment [23] it was 342; in experiment [24] it was 364. Besides, the ECL signal in experiment [25] came to 317; in [26], 295; in [27] it was 187000.

B4: Fab VH1-46_IGHD6-6*01_IGHJ1*01 S102A/S103P/S104F/H111F (APFF) & L6_IGKJ1*01 S30G (Fab, V domains shown)
VH: B1 VH
VL: B1 VL with N30G
notes: Fab made in E. coli: VH cloned into Plasmid A (CH1, His6 and Flag tags), kappa VL into Plasmid C (kappa CL); also called APFF / S30G
For B4, the ECL signal in experiment [28] came to 480; in [29], 343; in [30], 298; in experiment [31], 263; in experiment [32] it was 304; in [33], 346. Moreover, the ECL signal came to 397 in [34], 260 in experiment [35] and 178000 in experiment [36].

The record behind these values is patent US20120316071A1 (published 2012).
